Blank lines part the entries; values can stand above or below the binder they belong to.
Columns and labels:
His-Zyxin (wildtype) = target: T1, His-Zyxin (wildtype) (UniProt Q15942 1-572); experiment: pull-down
T1 sequence (looked up): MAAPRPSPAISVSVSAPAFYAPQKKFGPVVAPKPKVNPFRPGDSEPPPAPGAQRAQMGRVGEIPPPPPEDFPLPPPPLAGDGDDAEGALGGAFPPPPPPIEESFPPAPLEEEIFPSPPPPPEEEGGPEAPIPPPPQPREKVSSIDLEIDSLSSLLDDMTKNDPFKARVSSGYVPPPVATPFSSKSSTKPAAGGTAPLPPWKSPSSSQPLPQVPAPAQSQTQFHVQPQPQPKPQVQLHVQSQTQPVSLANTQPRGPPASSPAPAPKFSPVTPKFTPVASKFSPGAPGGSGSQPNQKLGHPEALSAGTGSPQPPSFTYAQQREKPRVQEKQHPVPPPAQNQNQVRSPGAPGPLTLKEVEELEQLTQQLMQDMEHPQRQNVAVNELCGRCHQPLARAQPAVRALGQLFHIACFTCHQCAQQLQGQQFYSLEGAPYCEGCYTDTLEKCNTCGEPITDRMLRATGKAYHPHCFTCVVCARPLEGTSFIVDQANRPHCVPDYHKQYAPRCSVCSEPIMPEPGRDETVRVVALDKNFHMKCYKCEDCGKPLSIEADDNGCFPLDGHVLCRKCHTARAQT

[1] = mCherry-Zyxin microscopy, U2OS, ± GFP-14-3-3γ; conditions: glycan changed form; control: wild type
[2] = GFP-Zyxin1–350 microscopy, U2OS, ± mCherry-14-3-3γ; conditions: glycan changed form; control: Zyxin (1–350), Ser-169

binding result (His-Zyxin (wildtype)): binds
B1: GST-14-3-3γ (natural protein, UniProt P61981 1-247, looked up)
chain: MVDREQLVQKARLAEQAERYDDMAAAMKNVTELNEPLSNEERNLLSVAYKNVVGARRSSWRVISSIEQKTSADGNEKKIEMVRAYREKIEKELEAVCQDVLSLLDNYLIKNCSETQYESKVFYLKMKGDYYRYLAEVATGEKRATVVESSEKAYSEAHEISKEHMQPTHPIRLGLALNYSVFYYEIQNAPEQACHLAKTAFDDAIAELDTLNEDSYKDSTLIMQLLRDNLTLWTSDQQDDDGGEGNN

B2: Zyxin: S169C (protein)
parent chain: T1 sequence (looked up)
other: 14-3-3γ-induced nuclear localisation [1]: no change | other: 14-3-3γ-induced nuclear localisation [2]: no change
